# Reference: the supplement of paper PMC9732359
# ± gives the uncertainty stated by the source.
# Experiment: protein stability index of a GFP-peptide fusion (yeast GPS) (PSI 1-4); higher = more stable; sorted into four equal gates, so the index is relative within each strain
# Conditions: doa10∆
# Summary of the method: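 Each library plasmid carries Cherry plus GFP with a tiled 17-residue yeast protein peptide fused downstream, and the pooled library was carried in yeast. Mid-log cultures in leucine-free medium were sorted into four equal gates by GFP/Cherry ratio. Reads from Illumina sequencing of PCR-amplified plasmids from each gate were assigned to strains by barcodes. Per peptide, the protein stability index was computed as the summed products of gate read frequency and gate number.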
row,Sequence,protein stability index
1,HKVTQKKDIKIGTNDLF [SIR4],2.63 ± 0.12
2,HLAICLDIINPGSVEEV [YDL116W/NUP84],2.66 ± 0.098
3,HLDSFNYFVDTDLKKII [RET1],2.69 ± 0.094
4,HLIKCFFKITLQRASSK [ITC1],1.38 ± 0.073
5,HMISQEGIKETQAKRIF [SWI1],3.1 ± 0.17
6,HMSTYLKIYKVGDIVDI [RPL21B],1.69 ± 0.036
7,HNGRDKIQFHIHFADVA [RGR1],1.68 ± 0.051
8,HNVFSKEQTIQLPSKFT [RPN14],2.41 ± 0.11
9,HPFGHALVAGIERYPLK [RPL27A],2.53 ± 0.082
10,HPFVFEEVEDQINPTRE [SNF2],3.36 ± 0.077
11,HPKIVKKHTKKFKRHHS [RPL32],2.74 ± 0.054
12,HPSIYTQVFNILLQHKE [POP1],2.25 ± 0.083
13,HQQQLQQPHYIQRTRER [DSN1],2.95 ± 0.055
14,HRDKNKMDMICRNINRK [DIS3],2.32 ± 0.081
15,HRIGQKKQVHVYRFVTE [ISW2],2.14 ± 0.054
16,HRLIATHTNLERDEQKR [SNF2],3.38 ± 0.069
17,HRLSILSHYAKIRPWRT [RPO31],2.81 ± 0.068
18,HSFEDAHTPMLQMYSKI [FAS1],2.75 ± 0.06
19,HSKFRSSSGNTWSLILN [YML031W/NDC1],2.75 ± 0.1
20,HSLAYLLENFANFKTSK [RRP6],2.68 ± 0.22
21,HSNRCIVFSKKEPFPHS [CSN12],2.49 ± 0.043
22,HTGKKLMAQIFFGPTYY [RPB2],2.64 ± 0.055
23,HTTQIVNLEDNTQDLLL [YML103C/NUP188],3.21 ± 0.11
24,HVEKERASTELSQSRIK [YIL149C/MLP2],3.01 ± 0.089
25,HVESDKITAKTQHEEEE [IRR1],2.85 ± 0.064
26,HVVTREKGPQVCAKLFG [RPO21],3.24 ± 0.082

row,Sequence,protein stability index
1,HYERTQTKENKRCVGVI [RPN8],2.9 ± 0.12
2,HYVSTSKISQMAQNKTH [YLR018C/POM34],1.56 ± 0.032
3,HYVVLDTNVVLQAIDLL [DIS3],2.53 ± 0.093
4,IADELMKLDDSSKTRNV [ITC1],2.61 ± 0.072
5,IADKTTYDKETITDLIE [SIR4],3.3 ± 0.063
6,IAEVGNKRWKVDIGGKQ [RRP4],3.62 ± 0.19
7,IAKPNTANAKHTSSNSR [SMB1],2.93 ± 0.069
8,IAPRPLDLLRPVVRAPT [RPL13A],2.55 ± 0.08
9,IASTEKPENKTDKVSLS [SIR4],3.21 ± 0.069
10,IAVLRSKEWFQLDDEDF [FAS1],2.03 ± 0.041
11,ICLYSSFQKNSLHNTEK [AAR2],1.99 ± 0.065
12,IDADSLEDIYTSAHEAI [RPL5],2.98 ± 0.097
13,IDAMKAVAEAYNNRSLL [RPN6],1.7 ± 0.061
14,IDDANVTRKQEDARRNP [RPC37],1.45 ± 0.15
15,IDEHIDLGIKYDPSIGI [RPL11A],2.84 ± 0.035
16,IDGKTVSYKDYSIFLEN [SMC1],2.72 ± 0.062
17,IDGKVIQAGKFDNKSTS [SNF2],1.36 ± 0.057
18,IDIINKLILHAIHIFES [YML103C/NUP188],1.5 ± 0.053
19,IDKLMLSPSDQFAPAFL [SSN2],1.99 ± 0.068
20,IDMGEDKENVPVEKVKE [DPB4],3.41 ± 0.23
21,IDPSVTMMTVEEKPDVT [RPT1],2.62 ± 0.097
22,IDQDIHGIVFQHPFPLA [SSN2],2.13 ± 0.044
23,IDQVMMSVSDNDQALIK [RET1],2.9 ± 0.054
24,IDRNLKCQTCQEGMNEC [RPO21],2.48 ± 0.086
25,IDRNSTILYLNVFHGLC [IRR1],2.41 ± 0.14
26,IDRPKHELSRAELEELE [SMD2],3.27 ± 0.083

row,Sequence,protein stability index
1,IDTSKNLENMSIQDTST [YCG1],2.79 ± 0.046
2,IEDLRADINSNRLSNPQ [YOR098C/NUP1],2.64 ± 0.09
3,IEEEIFDDSSRIVNHKT [LIN1],3.14 ± 0.083
4,IEFEYDPWNKLKHTDYW [RPB3],2.85 ± 0.1
5,IEILVKDNECSSFEENN [RRI2],2.86 ± 0.13
6,IELSDGSTFKVNQEFIF [YJL039C/NUP192],3.23 ± 0.088
7,IEMKDVSSKPSKPESSV [MED1],3.15 ± 0.12
8,IEMYVQEASKQYTKDEQ [RPN2],3.3 ± 0.084
9,IENMTKEKVSNGGVGVD [FAS2],3.23 ± 0.088
10,IEPVTKVSSLKMFIQRI [YCS4],2.91 ± 0.064
11,IEQFAMRRNSKILNIIK [POP5],3.08 ± 0.084
12,IETIGHLITKEEIMHGL [RPN5],2.82 ± 0.089
13,IEYCSAQPSVQSSFAGT [FAS2],2.72 ± 0.11
14,IFINYKQTADWLAEKFQ [PRP28],1.7 ± 0.049
15,IFNGETLEDALRRIITD [GRR1],1.96 ± 0.084
16,IFSQMSRLLDILEDYCY [ISW2],1.66 ± 0.048
17,IFSQTTNSTYNPASATD [YJL039C/NUP192],2.83 ± 0.054
18,IFTEKIYKSIFNVVDVG [YJL039C/NUP192],1.99 ± 0.07
19,IGAAELNENARELEQIK [SNF12],3.18 ± 0.081
20,IGHLITKEEIMHGLQAK [RPN5],2.91 ± 0.087
21,IGNLITRQFEGRSNEIV [PRP8],3.05 ± 0.075
22,IGTANYKPLIEERMGQI [SMC4],3.1 ± 0.087
23,IHGELKTYKEGINKNEE [SMC1],2.94 ± 0.075
24,IHKIQNDNNLKKLESQE [RPN5],3.08 ± 0.2
25,IHSLVKQRLDLARQVKL [YIL149C/MLP2],2.69 ± 0.064
26,IIAELSFLKVDPDLGLD [YJL039C/NUP192],3.35 ± 0.091

row,Sequence,protein stability index
1,IIASASYDKTVKLWEED [YGL100W/SEH1],3.3 ± 0.18
2,IIDEIITQMRVNDEEEH [RPC82],3 ± 0.084
3,IIFASTKLGFTFTIKEF [SNU114],2.37 ± 0.078
4,IIKLVEGLANDPENKVP [RPS12],2.01 ± 0.086
5,IILGTNLYDGAEHKYMP [BRR2],3.06 ± 0.12
6,IIMFVGLQGSGKTTSCT [SRP54],2.8 ± 0.067
7,IINSTALMKEKDIRSTL [RPC82],3.12 ± 0.19
8,IIPQDILDCVVTNSMRQ [YJR042W/NUP85],3.01 ± 0.069
9,IIRHEKELEPWDLQLQE [SMC4],3.28 ± 0.15
10,IITSGRDTREVLEERER [ARP9],3.41 ± 0.16
11,IIVPDLIELKSDLLVAP [YML103C/NUP188],1.65 ± 0.052
12,IKDSVREVGTKFTTVLA [ECM29],2.77 ± 0.084
13,IKEENDMENMADEQKRS [ARP7],3.54 ± 0.17
14,IKEKVQFNATINPESRE [ITC1],1.67 ± 0.046
15,IKELLNITKNLKTFNGS [POP4],1.99 ± 0.13
16,IKGQCLATLLGHNDWVS [ASC1],1.37 ± 0.083
17,IKHKHKKVKLAVLSYYK [RPS31],2.23 ± 0.047
18,IKIEPSADDDVNNGNIP [SIR3],2.12 ± 0.098
19,IKKVICGAWEPAITIEK [SIR3],2.15 ± 0.094
20,IKLDIVVGQNQLIDQFE [SNF5],1.88 ± 0.075
21,IKPKIALQDKEITSVLS [SNF12],2.31 ± 0.082
22,IKRTDEGGEAEFIFGTY [ARP7],3.35 ± 0.093
23,IKVTVQLKIQNRQAAAS [RPL12A],1.57 ± 0.052

# Same assay, conditions: pdr5∆
row,Sequence,protein stability index
1,HKVTQKKDIKIGTNDLF [SIR4],2.61 ± 0.11
2,HLAICLDIINPGSVEEV [YDL116W/NUP84],2.77 ± 0.089
